This series addresses CD33 (UniProt P20138 18-259). Put plainly: LOCK displacement, CHA/Cas12a fluorescence.

Sequence of CD33 (P20138 18-259): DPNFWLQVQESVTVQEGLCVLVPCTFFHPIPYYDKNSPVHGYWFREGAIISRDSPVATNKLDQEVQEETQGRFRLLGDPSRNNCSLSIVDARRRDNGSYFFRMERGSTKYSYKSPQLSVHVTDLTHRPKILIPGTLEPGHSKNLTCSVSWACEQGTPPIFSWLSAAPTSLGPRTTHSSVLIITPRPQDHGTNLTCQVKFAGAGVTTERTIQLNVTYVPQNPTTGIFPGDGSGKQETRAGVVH

B1: CD33 YES gate DNA1/LOCK (mixed)
DNA 1: TAGCTTATCAGACTGATGTTGATACCAGTGCGATGCTCAGCACGCTTATAGGGGCTGGACAAAATTCTACCCAGCCTTTTCTGACGCATTCGGTTGAC
DNA 2: CACTGGTATCAACATCAGTC
Consider B1, for which the binding result was “binds”.

For the origin of these results see publication PMC11983205.
